Assay results as given in US20140378374A1, “METHODS OF TREATMENT” (GlaxoSmithKline Intellectual Property (No.2) Limited, priority 2013, published 2014).

Key:
patients with T2DM = assay: Phase 3 pooled analysis (Harmony 2, 4, 5, 8) of efficacy and safety by renal impairment severity, through primary endpoint (26 to 52 weeks)
Method: Patients with T2DM were enrolled in 3 similarly designed Phase 3 studies ^11-13 (Harmony 2, Harmony 4 and Harmony 5) and one Phase 3 study in patients with varying degrees of renal impairment (Harmony 8). ^10 These studies were randomized, double-blind (one open-label), active- (sitagliptin, pioglitazone, or glimepiride) or placebo-controlled, parallel-group, multicenter trials in which albiglutide (30 to 50 mg) was administered once weekly. In all 4 studies, men and nonpregnant women who were ≧18 years of age with a historical diagnosis of T2DM, and who were inadequately controlled (HbA1c≧7.0% and ≦10.0%) on diet and exercise and/or their current regimen of anti-diabetic agents (ie, metformin, thiazolidinedione, sulfonylurea, or any combination of these oral anti-diabetic medications) were eligible to enroll. Additional eligibility criteria included fasting C peptide of ≧0.8 ng/mL (≧0.26 nmol/L) and BMI between 20 and 45 kg/m^2. Harmony 8, the study in CKD patients, required estimated GFR≧15 and <90 mL/min/1.73 m^2, whereas the other 3 studies required estimated GFR>60 mL/min/1.73 m^2. […] Patients who met additional exclusion criteria, including requirements for levels of total bilirubin, alanine aminotransferase, aspartate aminotransferase, amylase, lipase, fasting triglycerides, and hemoglobin were also excluded.
Efficacy (HbA1c, fasting plasma glucose [FPG] and body weight) was assessed in each of the 4 studies by change from baseline to the primary endpoint (week 26 to week 52) using last observation carried forward for missing data. Rescue medications were allowed in subjects with persistent hyperglycemia (REF), however, efficacy data obtained after hyperglycemic rescue were not included and replaced with pre-rescue values for efficacy evaluation. Safety was assessed by monitoring the incidence of treatment emergent adverse events throughout the studies.
To evaluate efficacy and tolerability in different renal population, efficacy and tolerability data from patients with pop PK sample across 4 Phase 3 studies were extracted. Descriptive analysis were conducted up to primary endpoint (week 52 for Harmony 2, Harmony 4 and Harmony 5 and week 26 for study Harmony 8). Baseline demographics are summarized by renal impairment severity (normal, mild, moderate and severe). Efficacy parameters such as change from baseline of HbA1c, FPG, weight are also summarized by renal impairment severity. LOCF (Last Observation Carried Forward) approach is used in efficacy evaluation. Except for hypoglycemia, tolerability (AE, SAE and AE cause withdraw) were summarized by renal impairment severity for all data up to primary endpoint including post-rescue data. Hypoglycemia events (severe and documented symptomatic) were evaluated by renal impairment severity only include pre-rescue data.

[1] = Population pharmacokinetics, Phase 3 pooled analysis; assay type: in vivo, human
Excerpt: During each Phase 3 study, 4 blood samples for population pharmacokinetic evaluation were obtained. In the study of patients with CKD, 2 predose samples were obtained at weeks 8 and 16 and 2 postdose samples were obtained at least 2 days after dosing between weeks 8 and 10 and weeks 16 and 20. In the other 3 studies, 2 predose samples were obtained at weeks 8 and 24 and 2 postdose samples were obtained at least 2 days after dosing between weeks 8 and 10 and weeks 24 and 28. The blood collection and storage procedure were the same as described above.
Plasma samples were analyzed for albiglutide by using a validated enzyme-linked immunosorbent assay (ELISA) and were diluted 100-fold with sample buffer before analysis. Albiglutide was captured using a rabbit anti-human GLP-1 (7-36) amide and detected using a rabbit anti-HSA conjugated to biotin. ELISA experiments were performed using the Furoninc® 96 well plate (Nunc, cat. #437796) with the following steps. […] The microtiter plate was washed 5 times with […] wash buffer (10 mM Sodium Phosphate, 150 mM NaCl, 0.05% Tween 20, pH 7.5) using plate washer; 2) […] blocking buffer of SuperBlock in PBS (SuperBlock (Pierce, cat. #37515) in PBS, 5.0% Rabbit Plasma) was added to each well, sealed and incubated with constant shaking for approximately 1.5 hour (±30 minutes) at ambient room temperature and the microtiter plate washed; 3) 100 mL of either standards, quality controls (QCs) or samples were added per well, sealed, incubated and washed; 4) 100 mL of Detection Antibody solution of Biotin Labelled Rabbit polyclonal to Human Serum Albumin (NOVUS Biologicals, cat. # NB 100-1674) was added per well, sealed, incubated and washed; 5) 100 mL of Reporter Tag solution (Streptavidin-HRPO Conjugate, Caltag, cat. # SA1007) was added per well, sealed, incubated and washed; 6) 100 mL of Development Substrate Pico (SuperSignal ELISA, Pierce, cat. #37070) was added, incubated and the plate read using plate reader (Wallac 1420 Victor Multilabel Counter, Perkin Elmer Life Sciences, Boston, Mass.). […]

[2] = range over renal function groups of the pooled analysis

Albiglutide: recombinant fusion protein of 2 copies of modified human GLP-1 (fragment 7-36(A8G)) genetically fused in series to recombinant human serum albumin
neutralizing anti-albiglutide antibodies (patients with T2DM; 4 trials of the pooled analysis): none of the antibodies were neutralizing
Pre-Rescue Hypoglycemia: Documented Symptomatic, With background SU (patients with T2DM; Mild): 70 (17) N (%)
Pre-Rescue Hypoglycemia: Documented Symptomatic, Without background SU (patients with T2DM; Mild): 3 (1.4) N (%)
Pre-Rescue Hypoglycemia: Severe, With background SU (patients with T2DM; Mild): 1 (0.2) N (%)
Pre-Rescue Hypoglycemia: Severe, Without background SU (patients with T2DM; Mild): 0 (0) N (%)
AEs leading to withdrawal (patients with T2DM; Mild (n = 633)): 37 (5.8) N (%)
Abdominal distention (patients with T2DM; Mild (n = 633)): 5 (0.8) N (%)
Anemia (patients with T2DM; Mild (n = 633)): 15 (2.4) N (%)
Any AE (patients with T2DM; Mild (n = 633)): 511 (81) N (%)
Constipation (patients with T2DM; Mild (n = 633)): 25 (3.9) N (%)
Diarrhea (patients with T2DM; Mild (n = 633)): 55 (8.7) N (%)
Edema peripheral (patients with T2DM; Mild (n = 633)): 21 (3.3) N (%)
Gastrointestinal disorders system organ class: Any event (patients with T2DM; Mild (n = 633)): 205 (32) N (%)
Injection site reaction (patients with T2DM; Mild (n = 633)): 51 (8.1) N (%)
Nasopharyngitis (patients with T2DM; Mild (n = 633)): 51 (8.1) N (%)
Nausea (patients with T2DM; Mild (n = 633)): 60 (9.5) N (%)
Pre-Rescue Hypoglycemia: Documented Symptomatic (overall) (patients with T2DM; Mild (n = 633)): 73 (12) N (%)
Pre-Rescue Hypoglycemia: Severe (overall) (patients with T2DM; Mild (n = 633)): 1 (0.2) N (%)
Renal Impairment (adverse event) (patients with T2DM; Mild (n = 633)): 0 (0) N (%)
Serious AE (patients with T2DM; Mild (n = 633)): 52 (8.2) N (%)
Pre-Rescue Hypoglycemia: Documented Symptomatic, With background SU (patients with T2DM; Moderate): 28 (20) N (%)
Pre-Rescue Hypoglycemia: Documented Symptomatic, Without background SU (patients with T2DM; Moderate): 0 (0) N (%)
Pre-Rescue Hypoglycemia: Severe, With background SU (patients with T2DM; Moderate): 0 (0) N (%)
Pre-Rescue Hypoglycemia: Severe, Without background SU (patients with T2DM; Moderate): 0 (0) N (%)
AEs leading to withdrawal (patients with T2DM; Moderate (n = 175)): 11 (6.3) N (%)
Abdominal distention (patients with T2DM; Moderate (n = 175)): 2 (1.1) N (%)
Anemia (patients with T2DM; Moderate (n = 175)): 5 (2.9) N (%)
Any AE (patients with T2DM; Moderate (n = 175)): 139 (79) N (%)
Constipation (patients with T2DM; Moderate (n = 175)): 11 (6.3) N (%)
Diarrhea (patients with T2DM; Moderate (n = 175)): 23 (13) N (%)
Edema peripheral (patients with T2DM; Moderate (n = 175)): 4 (2.3) N (%)
Gastrointestinal disorders system organ class: Any event (patients with T2DM; Moderate (n = 175)): 58 (33) N (%)
Injection site reaction (patients with T2DM; Moderate (n = 175)): 12 (6.9) N (%)
Nasopharyngitis (patients with T2DM; Moderate (n = 175)): 14 (8.0) N (%)
Nausea (patients with T2DM; Moderate (n = 175)): 13 (7.4) N (%)
Pre-Rescue Hypoglycemia: Documented Symptomatic (overall) (patients with T2DM; Moderate (n = 175)): 28 (16) N (%)
Pre-Rescue Hypoglycemia: Severe (overall) (patients with T2DM; Moderate (n = 175)): 0 (0) N (%)
Renal Impairment (adverse event) (patients with T2DM; Moderate (n = 175)): 3 (1.7) N (%)
Serious AE (patients with T2DM; Moderate (n = 175)): 17 (9.7) N (%)
Pre-Rescue Hypoglycemia: Documented Symptomatic, With background SU (patients with T2DM; Normal): 44 (21) N (%)
Pre-Rescue Hypoglycemia: Documented Symptomatic, Without background SU (patients with T2DM; Normal): 0 (0) N (%)
Pre-Rescue Hypoglycemia: Severe, With background SU (patients with T2DM; Normal): 1 (0.3) N (%)
Pre-Rescue Hypoglycemia: Severe, Without background SU (patients with T2DM; Normal): 0 (0) N (%)
AEs leading to withdrawal (patients with T2DM; Normal (n = 286)): 11 (3.8) N (%)
Abdominal distention (patients with T2DM; Normal (n = 286)): 2 (0.7) N (%)
Anemia (patients with T2DM; Normal (n = 286)): 6 (2.1) N (%)
Any AE (patients with T2DM; Normal (n = 286)): 232 (81) N (%)
Constipation (patients with T2DM; Normal (n = 286)): 8 (2.8) N (%)
Diarrhea (patients with T2DM; Normal (n = 286)): 20 (7.0) N (%)
Edema peripheral (patients with T2DM; Normal (n = 286)): 5 (1.7) N (%)
Gastrointestinal disorders system organ class: Any event (patients with T2DM; Normal (n = 286)): 76 (27) N (%)
Injection site reaction (patients with T2DM; Normal (n = 286)): 32 (11) N (%)
Nasopharyngitis (patients with T2DM; Normal (n = 286)): 19 (6.6) N (%)
Nausea (patients with T2DM; Normal (n = 286)): 23 (8.0) N (%)
Pre-Rescue Hypoglycemia: Documented Symptomatic (overall) (patients with T2DM; Normal (n = 286)): 44 (15) N (%)
Pre-Rescue Hypoglycemia: Severe (overall) (patients with T2DM; Normal (n = 286)): 1 (0.3) N (%)
Renal Impairment (adverse event) (patients with T2DM; Normal (n = 286)): 0 (0) N (%)
Serious AE (patients with T2DM; Normal (n = 286)): 17 (5.9) N (%)
Pre-Rescue Hypoglycemia: Documented Symptomatic, With background SU (patients with T2DM; Severe): 4 (29) N (%)
Pre-Rescue Hypoglycemia: Documented Symptomatic, Without background SU (patients with T2DM; Severe): 0 (0) N (%)
Pre-Rescue Hypoglycemia: Severe, With background SU (patients with T2DM; Severe): 0 (0) N (%)
Pre-Rescue Hypoglycemia: Severe, Without background SU (patients with T2DM; Severe): 0 (0) N (%)
AEs leading to withdrawal (patients with T2DM; Severe (n = 19)): 2 (11) N (%)
Abdominal distention (patients with T2DM; Severe (n = 19)): 2 (11) N (%)
Anemia (patients with T2DM; Severe (n = 19)): 4 (21) N (%)
Any AE (patients with T2DM; Severe (n = 19)): 12 (63) N (%)
Constipation (patients with T2DM; Severe (n = 19)): 2 (11) N (%)
Diarrhea (patients with T2DM; Severe (n = 19)): 4 (21) N (%)
Edema peripheral (patients with T2DM; Severe (n = 19)): 3 (16) N (%)
Gastrointestinal disorders system organ class: Any event (patients with T2DM; Severe (n = 19)): 8 (42) N (%)
Injection site reaction (patients with T2DM; Severe (n = 19)): 1 (5.3) N (%)
Nasopharyngitis (patients with T2DM; Severe (n = 19)): 1 (5.3) N (%)
Nausea (patients with T2DM; Severe (n = 19)): 3 (16) N (%)
Pre-Rescue Hypoglycemia: Documented Symptomatic (overall) (patients with T2DM; Severe (n = 19)): 4 (21) N (%)
Pre-Rescue Hypoglycemia: Severe (overall) (patients with T2DM; Severe (n = 19)): 0 (0) N (%)
Renal Impairment (adverse event) (patients with T2DM; Severe (n = 19)): 4 (21) N (%)
Serious AE (patients with T2DM; Severe (n = 19)): 0 (0) N (%)
treatment effect as measured by HbA1c and FPG vs GFR (patients with T2DM; change from baseline, scatter plot): trend towards greater reductions as GFR decreased
thyroid cancer (patients with T2DM; in vivo): No patient developed thyroid cancer
nausea, percentage (patients with T2DM; mild group): 9.5%
vomiting, percentage (patients with T2DM; mild group): 3.2%
nausea, percentage (patients with T2DM; moderate group): 7.4%
vomiting, percentage (patients with T2DM; moderate group): 2.9%
nausea, percentage (patients with T2DM; normal group): 8.0%
vomiting, percentage (patients with T2DM; normal group): 2.1%
subjects with severe hypoglycemic events (patients with T2DM; normal, mild renal impairment, with background SU use): 2
patients with probable pancreatitis at least possibly related to study drug (patients with T2DM; one with mild and one with moderate renal impairment): Two
nausea percentage, range (patients with T2DM; [2]): 7-16%
vomiting percentage, range (patients with T2DM; [2]): 2-5%
incidence of anti-albiglutide antibodies (patients with T2DM; range over the 4 trials of the pooled analysis): 2.8% to 8.1
nausea, percentage (patients with T2DM; severe group): 16%
vomiting, percentage (patients with T2DM; severe group): 5.3%
apparent clearance CL/F, typical value of the final population PK model ([1]; BW 90.7, eGFR 77.9, covariates body weight, eGFR, African heritage, insulin): 66.6 mL/h
decrease in clearance vs eGFR around 80 mL/min/1.73 m2 ([1]; patient with eGFR of 50 mL/min/1.73 m2): about 9%
decrease in clearance vs eGFR around 80 mL/min/1.73 m2 ([1]; typical patient with eGFR of 30 mL/min/1.73 m2): about 19%
